# From patent US20020045192A1 (ST JUDE CHILDREN S RESEARCH HOSPITAL, published 2002)
# T1: His-tagged mArfN37 (N-terminal 37 amino acids of mouse p19Arf with poly-His tag) (mouse)
# T1 construct: Captured on the SPR chip by a covalently linked anti-His antibody; Tag placed first here; also called His-mArfN37; His-tagged mArf37
# T1 chain: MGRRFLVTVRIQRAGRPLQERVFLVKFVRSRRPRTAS
# B1: 285-299 (Hdm2 peptide) (peptide)
# peptide: Ac-ESDTDSFEEDPEISL-NH2
# notes: also called Hdm2 library peptide, residues 285-299
# B2: 240-254 (Hdm2 peptide) (peptide)
# peptide: Ac-SVSDQFSVEFEVESL-NH2
# notes: member of the group m17; also called Hdm2 library peptide, residues 240-254; H1 segment peptide
# B3: 260-274 (Hdm2 peptide) (peptide)
# peptide: Ac-SLSEEGQELSDEDDE-NH2
# notes: also called Hdm2 library peptide, residues 260-274
# B4: 215-229 (Hdm2 peptide) (peptide)
# peptide: Ac-STGTPSNPDLDAGVS-NH2
# notes: also called Hdm2 library peptide, residues 215-229
# B5: 295-309 (Hdm2 peptide) (peptide)
# peptide: Ac-PEISLADYWKCTSCN-NH2
# modifications: cysteine pairing not given here
# notes: also called Hdm2 library peptide, residues 295-309
# B6: 235-249 (Hdm2 peptide) (peptide)
# peptide: Ac-WLDQDSVSDQFSVEF-NH2
# notes: member of the group m17; also called H1 segment peptide
# B7: 330-344 (Hdm2 peptide) (peptide)
# peptide: Ac-LPEDKGKDKGEISEK-NH2
# notes: also called Hdm2 library peptide, residues 330-344
# B8: 270-284 (Hdm2 peptide) (peptide)
# peptide: Ac-DEDDEVYQVTVYQAG-NH2
# notes: also called Hdm2 library peptide, residues 270-284
# B9: 320-334 (Hdm2 peptide) (peptide)
# peptide: Ac-NRCWALRENWLPEDK-NH2
# notes: also called Hdm2 library peptide, residues 320-334
# B10: 310-324 (Hdm2 peptide) (peptide)
# peptide: Ac-EMNPPLPSHCNRCWA-NH2
# modifications: cysteine pairing not given here
# notes: also called Hdm2 library peptide, residues 310-324
# B11: 245-259 (Hdm2 peptide) (peptide)
# peptide: Ac-FSVEFEVESLDSEDY-NH2
# notes: as for B6
# B12: 300-314 (Hdm2 peptide) (peptide)
# peptide: Ac-ADYWKCTSCNEMNPP-NH2
# modifications: cysteine pairing not given here
# notes: also called Hdm2 library peptide, residues 300-314
# B13: 325-339 (Hdm2 peptide) (peptide)
# peptide: Ac-LRENWLPEDKGKDKG-NH2
# notes: also called Hdm2 library peptide, residues 325-339
# B14: 210-224 (Hdm2 peptide) (peptide)
# peptide: Ac-SSSSESTGTPSNPDL-NH2
# notes: also called Hdm2 library peptide, residues 210-224
# B15: 220-234 (Hdm2 peptide) (peptide)
# peptide: Ac-SNPDLDAGVSEHSGD-NH2
# notes: also called Hdm2 library peptide, residues 220-234
# B16: 335-349 (Hdm2 peptide) (peptide)
# peptide: Ac-GKDKGEISEKAKLEN-NH2
# notes: also called Hdm2 library peptide, residues 335-349
# B17: 230-244 (Hdm2 peptide) (peptide)
# peptide: Ac-EHSGDWLDQDSVSDQ-NH2
# notes: also called Hdm2 library peptide, residues 230-244
# B18: 265-279 (Hdm2 peptide) (peptide)
# peptide: Ac-GQELSDEDDEVYQVT-NH2
# notes: also called Hdm2 library peptide, residues 265-279
# B19: 280-294 (Hdm2 peptide) (peptide)
# peptide: Ac-VYQAGESDTDSFEED-NH2
# notes: also called Hdm2 library peptide, residues 280-294
# B20: human p14Arf library peptide, residues 1-15 (peptide)
# peptide: Ac-MVRRFLVTLRIRRAC-NH2
# notes: also called first peptide of the human library
# B21: 91-105 (human Arf peptide) (peptide)
# peptide: Ac-HSHPTRARRCPGGLP-NH2
# notes: also called human p14Arf library peptide, residues 91-105
# B22: human p14Arf library peptide, residues 6-20 (peptide)
# peptide: Ac-LVTLRIRRACGPPRV-NH2
# notes: also called second peptide of the human library
# B23: 66-80 (human Arf peptide) (peptide)
# peptide: Ac-HDDGQRPSGGAAAAP-NH2
# notes: also called human p14Arf library peptide, residues 66-80
# B24: 71-85 (human Arf peptide) (peptide)
# peptide: Ac-RPSGGAAAAPRRGAQ-NH2
# notes: also called human p14Arf library peptide, residues 71-85
# B25: 76-90 (human Arf peptide) (peptide)
# peptide: Ac-AAAAPRRGAQLRRPR-NH2
# notes: also called human p14Arf library peptide, residues 76-90
# B26: 56-70 (human Arf peptide) (peptide)
# peptide: Ac-GQQPLPRRPGHDDGQ-NH2
# notes: also called human p14Arf library peptide, residues 56-70
# B27: 96-110 (human Arf peptide) (peptide)
# peptide: Ac-RARRCPGGLPGHAGG-NH2
# notes: also called human p14Arf library peptide, residues 96-110
# B28: 26-40 (human Arf peptide) (peptide)
# peptide: Ac-HIPRLTGEWAAPGAP-NH2
# notes: also called human p14Arf library peptide, residues 26-40
# B29: 21-35 (human Arf peptide) (peptide)
# peptide: Ac-RVFVVHIPRLTGEWA-NH2
# notes: also called human p14Arf library peptide, residues 21-35
# B30: human p14Arf library peptide, residues 11-25 (peptide)
# peptide: Ac-IRRACGPPRVRVFVV-NH2
# notes: also called third peptide of the human library
# B31: 106-120 (human Arf peptide) (peptide)
# peptide: Ac-GHAGGAAPGRGAAGR-NH2
# notes: also called human p14Arf library peptide, residues 106-120
# B32: 116-130 (human Arf peptide) (peptide)
# peptide: Ac-GAAGRARCLGPSARG-NH2
# notes: also called human p14Arf library peptide, residues 116-130
# B33: 111-125 (human Arf peptide) (peptide)
# peptide: Ac-AAPGRGAAGRARCLG-NH2
# notes: also called human p14Arf library peptide, residues 111-125
# B34: 61-75 (human Arf peptide) (peptide)
# peptide: Ac-PRRPGHDDGQRPSGG-NH2
# notes: also called human p14Arf library peptide, residues 61-75
# B35: 46-60 (human Arf peptide) (peptide)
# peptide: Ac-VLMLLRSQRLGQQPL-NH2
# notes: also called human p14Arf library peptide, residues 46-60
# B36: 81-95 (human Arf peptide) (peptide)
# peptide: Ac-RRGAQLRRPRHSHPT-NH2
# notes: also called human p14Arf library peptide, residues 81-95
# B37: 51-65 (human Arf peptide) (peptide)
# peptide: Ac-RSQRLGQQPLPRRPG-NH2
# notes: also called human p14Arf library peptide, residues 51-65
# B38: 41-55 (human Arf peptide) (peptide)
# peptide: Ac-AAVALVLMLLRSQRL-NH2
# notes: also called human p14Arf library peptide, residues 41-55
# B39: 31-45 (human Arf peptide) (peptide)
# peptide: Ac-TGEWAAPGAPAAVAL-NH2
# notes: also called human p14Arf library peptide, residues 31-45
# B40: 101-115 (human Arf peptide) (peptide)
# peptide: Ac-PGGLPGHAGGAAPGR-NH2
# notes: also called human p14Arf library peptide, residues 101-115
# Molecular target: T1, His-tagged mArfN37 (N-terminal 37 amino …)
# Assay: SPR, His-tagged mArfN37 captured by anti-His antibody, peptide injected, signal minus reference cell [c]
# Procedure: (§1) Binding studies were performed using a Biacore 3000 surface plasmon resonance (SPR) instrument (Biacore, Inc.). A Tetra-His™ Antibody (Qiagen, Inc.; Cat. #34670) was covalently attached to a carboxymethylated gold surface (C-1 chip; Biacore, Inc.). The carboxymethyl groups on the surface were activated with N-ethyl-N′-(3-dimethylaminopropyl) carbodiimide (EDC) and N-hydroxysuccinimide (NHS) and the antibody was attached at pH 7.4 in 20 mM sodium phosphate buffer, 150 mM NaCl (PBS). Reactive sites remaining on the surface were blocked by reaction with ethanolamine. The His-tagged ligand was attached to the antibody by injecting a 5-10 μg/ml solution of the ligand in 10 mM HEPES, 150 mM NaCl, pH 7.4 (HBS-N buffer, Biacore) at a flow rate of 10 μL/min through the flow cell. A reference cell was prepared similarly except that no His-tagged ligand was added. Binding was measured by flowing the non-His-tagged analyte through the reference and ligand-containing flow cells in sequence. Prior to injection of ligands, the chip surfaces were equilibrated in HBS-N buffer. Changes in the SPR response due to solvent differences and the injection process were monitored by injection of HBS-N buffer alone. Regeneration of the chip surface to remove bound analyte and ligand was accomplished by two 100 μL injections of 10 mM glycine, pH 2.0 through both flow cells. Data reported is the difference in SPR signal between the flow cell containing analyte and the reference cell. Duplicate injections were made and the SPR response values reported are the average of these two injections.
# A similar approach using short synthetic peptides and SPR was used to map the segments of Hdm2 that bind mArfN37 (FIG. 5c). […] The first of these as Arf-binding segment is termed “H1” and the second is termed segment “H2”.
row,Binder,binding result
1,B1,no binding
2,B2,binds
3,B3,no binding
4,Ac-EVESLDSEDYSLSEE-NH2 [250-264 (Hdm2 peptide)],binds
5,B4,no binding
6,B5,no binding
7,B6,binds
8,B7,no binding
9,Ac-DSEDYSLSEEGQELS-NH2 [255-269 (Hdm2 peptide)],no binding
10,B8,binds
11,B9,no binding
12,B10,no binding
13,B11,binds
14,B12,no binding
15,B13,no binding
16,B14,no binding
17,Ac-LPSHCNRCWALRENW-NH2 (cysteine pairing not given here) [315-329 (Hdm2 peptide)],no binding
18,B15,no binding
19,B16,no binding
20,"Ac-SFEEDPEISLADYWK-NH2 [Hdm2 peptide, residues 290-304 of SEQ ID NO:8]",binds
21,B17,no binding
22,B18,no binding
23,B19,no binding

# Molecular target: T2, His-tagged Hdm2 210-304 (human, UniProt Q00987 210-304)
# T2 construct: Captured on the C-1 chip by anti-His antibody for the Arf peptide library SPR; Tag placed first here
# Assay: SPR, His-tagged Hdm2 210-304 captured by anti-His antibody, peptide injected 10 min, signal minus reference cell [b]
# Procedure: as §1, with “Reactive” for “Binding studies were performed using a Biacore 3000 surface plasmon resonance (SPR) instrument (Biacore, Inc.). A Tetra-His™ Antibody (Qiagen, Inc.; Cat. #34670) was covalently attached to a carboxymethylated gold surface (C-1 chip; Biacore, Inc.). The carboxymethyl groups on the surface were activated with N-ethyl-N′-(3-dimethylaminopropyl) carbodiimide (EDC) and N-hydroxysuccinimide (NHS) and the antibody was attached at pH 7.4 in 20 mM sodium phosphate buffer, 150 mM NaCl (PBS). Reactive”
# Two libraries of peptides 15 amino acids in length were synthesized based on the sequence of exon 1β of mouse p19^Arf and the entire sequence of human p14^Arf. The sequence for the first peptide in each library corresponded to the first 15 amino acids of the protein sequences. […] This approach yielded two libraries of overlapping peptides spanning mouse p19^Arf residues 1-64 and human p14^Arf residues 1-132. The ability of these peptides to bind Hdm2 fragments was determined using the surface plasmon resonance (SPR) technique with a Biacore 3000 instrument. […] Library peptides were allowed to flow over the Hdm2 surface, or over a control surface lacking an Hdm2 fragment.
# T2 sequence (Q00987 210-304): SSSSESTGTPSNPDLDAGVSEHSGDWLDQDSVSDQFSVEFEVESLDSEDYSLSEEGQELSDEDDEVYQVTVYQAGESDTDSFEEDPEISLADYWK
row,Binder,binding result
1,B20,binds
2,"Ac-LRRPRHSHPTRARRC-NH2 [human p14Arf library peptide, residues 86-100 (contains the NoLS RRPR)]",binds
3,B21,no binding
4,B22,binds
5,B23,no binding
6,B24,no binding
7,B25,no binding
8,B26,no binding
9,B27,no binding
10,B28,no binding
11,B29,no binding
12,B30,binds
13,B31,no binding
14,B32,no binding
15,B33,no binding
16,B34,no binding
17,B35,no binding
18,B36,no binding
19,B37,no binding
20,B38,no binding
21,B39,no binding
22,B40,no binding
